In the supplement of paper PMC10567573 one finds protein stability index data, which are given here for 72 sequences.

A short description of this data set: protein stability index of a GFP-peptide fusion (GPS, HEK-293T) (PSI 1-6); higher = more stable.
Where [1] appears, read: treatment: DMSO, c terminus: a fixed tail appended.
Where [2] appears, read: treatment: MLN4924 1 uM, 8 h, c terminus: a fixed tail appended.

± gives the standard deviation.
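Note: 24-mer peptide tiles fused after GFP, lentivirally expressed, FACS-sorted into six equal bins by GFP/DsRed ratio, decoded by Illumina sequencing, PSI is the read-weighted mean bin number.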

On to GGYGFGRGRASGFAGSMFGSVALG [KRT71], for which the protein stability index reads like this: under setting [1], 3.05 ± 0.6; under setting [2], 2.96 ± 0.25.
For GKGFRHSSSLAQHQRKHAGEKPFE [ZNF8] the same measures were 4.82 ± 0.21 and 4.69 ± 0.28.
For GKSPDTNYLFMGDYVDRGYYSVET [PPP2CA] the same measures were 2.73 ± 0.28 and 2.87 ± 0.17.
For GKTPTVRAALICLTLVLVASVLLQ [CD207] the same measures were 3.17 ± 0.16 and 3.11 ± 0.76.
As to GKWMKKFPESETKECPFRVNKVCG [SERPINB5], the protein stability index runs as follows: under setting [1], 3.13 ± 0.32; under setting [2], 3.47 ± 0.38.
For GLLQDQGSGLSSRFEEPKGPPARQ [CBY2] the same measures were 4.89 ± 0.29 and 5.09 ± 0.23.
Regarding GLMVTCGTDRIVKIWDMTPVVGCS [WDFY1], the protein stability index by setting is: under setting [1], 2.29 ± 0.21; under setting [2], 2.18 ± 0.22.
The like results for GLRASTSDGILRGNGTGYLPGRGR [RHOBTB2] were, in that order, 4.58 ± 0.26 and 4.58 ± 0.2.
As for GLVTAALHMVIVAAFTWAFTLFFE [KMT2E], the protein stability index is, setting by setting: under setting [1], 1.96 ± 0.3; under setting [2], 1.83 ± 0.29.
For the sequence GMGGIQNEKETMQSLNDRLASYLD [KRT18], the protein stability index stood at 3.86 ± 0.18 under setting [1] and 3.84 ± 0.23 under setting [2].
The like results for GNCKYKVDCACLKENPECPVLKRS [KMT2E] were, in that order, 3.41 ± 0.5 and 4.05 ± 0.74.
The like results for GNMFPTIGDVHLAPFTDEQLYMEQ [CARM1] were, in that order, 3.93 ± 0.27 and 4.12 ± 0.19.
The like results for GNPRALSFVLSSLQLGEGVEFDVL [OAS1] were, in that order, 2.29 ± 0.22 and 2.12 ± 0.32.
With GPAAAAAPSLEAPKPSGLEPGPAA [KCTD13], the protein stability index stood at 5.4 ± 0.11 under setting [1] and 5.39 ± 0.29 under setting [2].
Take GPDNLVLLNPEKYKAKSRSPGSPV [ADD1]: the protein stability index amounted to 4.47 ± 0.25 under setting [1] and 4.63 ± 0.13 under setting [2].
The like results for GPLAQPLTLQVLVAGNPQDTRLRY [ADAMTS4] were, in that order, 2.49 ± 0.22 and 2.86 ± 0.1.
Regarding GPLDIWAVVKPGNTKEKIAFFASH [FBXO34], the protein stability index turned out to be 2.45 ± 0.27 under setting [1] and 2.78 ± 0.21 under setting [2].
For GPPPGAPHTPQTPGQGGPASTPAQ [NR2F2] the same measures were 5.34 ± 0.18 and 5.34 ± 0.16.
For GQFVSLDGAGKTPTLGGGFHVNLG [BRF1] the same measures were 2.96 ± 0.37 and 3.06 ± 0.11.
The like results for GRARATGGDLEEQQHAEGSPEPGT [DNAAF3] were, in that order, 5.59 ± 0.3 and 5.54 ± 0.23.
As for GRRQRKSEKRRDPPNGPNLPMATV [WASL], the protein stability index runs as follows: under setting [1], 4.7 ± 0.37; under setting [2], 4.47 ± 0.13.
For GSDSVIMTGAYNNFFRMFDRNTKR [PPP2R2C] the same measures were 3.22 ± 0.22 and 3.39 ± 0.36.
Take GSPGMIYSTRYGSPKRQLQFYRNL [KCNAB2]: the protein stability index under setting [1] was 2.44 ± 0.55 and the protein stability index under setting [2] came to 3.1 ± 0.38.
Take GSSFSGRVFRVTFLMLAVSLTVPL [APMAP]: the protein stability index reads like this: under setting [1], 3.06 ± 0.3; under setting [2], 3.05 ± 0.35.
The like results for GTETHGLVQVTLLDTVELATYCVR [PTPRD] were, in that order, 2.39 ± 0.22 and 2.55 ± 0.51.
In the case of GTSALWRHLRSAHRRELESSGAGS [ZBED3], the protein stability index by setting is: under setting [1], 3.78 ± 0.57; under setting [2], 4.1 ± 0.25.
With GTSHGAPPARGPRMSYGGSTCHAY [RBMY1A1], the protein stability index is 3.79 ± 0.22 under setting [1] and 3.77 ± 0.21 under setting [2].
For GTVIGVTSCIVIILIIISVIVQIK [NETO1] the same measures were 3.16 ± 0.34 and 3.02 ± 0.36.
The like results for GVPNASVIMQVPERIVVAGNNEDV [MFF] were, in that order, 4.68 ± 0.72 and 4.35 ± 0.31.
The like results for GVQREAQRIALRLGNGNDKKEMNK [KMT2E] were, in that order, 4.8 ± 0.26 and 4.78 ± 0.28.
As for GVVVEDGVCIRRCTVLRDARIRSH [GMPPB], the protein stability index came out at 2.83 ± 0.19 under setting [1] and 2.75 ± 0.33 under setting [2].
The like results for GVWAVIISHQQCWASTSPGTDLPL [TRIM15] were, in that order, 2.75 ± 0.97 and 2.67 ± 0.18.
The like results for GVWHQMGTDGYMPRELASMSLVLH [KLHDC10] were, in that order, 2.08 ± 0.21 and 2.06 ± 0.27.
The like results for HAPQISYTGPSSSGRFAGREWYYG [NCK2] were, in that order, 2.52 ± 0.17 and 2.8 ± 0.4.
In turn, HCRENAHDKIRPISSIGQVQSYME [SPACA9] came in with a protein stability index under setting [1] of 3.44 ± 0.22 and a protein stability index under setting [2] of 3.29 ± 0.26.
For HDFFLQGFTPDRLSSSCCHTVPDF [PLK2] the same measures were 2.71 ± 0.23 and 2.73 ± 0.24.
As to HDFIEHILRKLPQQREKLSLIRKH [CCND2], the protein stability index runs as follows: under setting [1], 2.3 ± 0.1; under setting [2], 2.45 ± 0.25.
For HFRGVSLNLTRKLAQQLCTALLFL [DYRK1B] the same measures were 2.04 ± 0.4 and 2.15 ± 0.23.
The like results for HFSQSLTVIHDFLFSLKESPEKFQ [FAF2] were, in that order, 2.06 ± 0.23 and 2.44 ± 0.26.
With HIFPASRWEPYDPEKKWDKYTIR [FAM50A], the protein stability index was found to be 2.82 ± 0.45 (treatment: DMSO, c terminus: native) and 3.15 ± 0.51 (treatment: MLN4924 1 uM, 8 h, c terminus: native).
For the sequence HILAAEQLSRDSTLGGKAFHITND [NSDHL], the protein stability index came to 3.39 ± 0.1 under setting [1] and 3.49 ± 0.28 under setting [2].
On to HLQLLGAVCMFLASKLKETSPLTA [CCND2], for which the protein stability index came to 2.48 ± 0.34 under setting [1] and 2.36 ± 0.25 under setting [2].
With HLSRQKIDPLLYMTEWFMCAFSRT [TBC1D10A], the protein stability index reads like this: under setting [1], 2.8 ± 0.31; under setting [2], 2.67 ± 0.55.
Sequence HMVKISGGPHISYPPLHEWVLREG [MAGEA3] had a protein stability index under setting [1] of 2.29 ± 0.34 and a protein stability index under setting [2] of 2.43 ± 0.35.
The like results for HNISHMSMDIARGLMVTCGTDRIV [WDFY1] were, in that order, 2.26 ± 0.16 and 2.27 ± 0.15.
For HNIVHVHFDATRGWLLTSGTDKVI [WDFY2] the same measures were 2.26 ± 0.45 and 2.25 ± 0.15.
Consider HNLIEQVSLGLGQPWHAVMDIESL [FBXO33], for which the protein stability index reads like this: under setting [1], 2.59 ± 0.52; under setting [2], 2.48 ± 0.16.
In the case of HRELLRLESRIRDVHELFLQMAVL [STX11], the protein stability index runs as follows: under setting [1], 2.49 ± 0.33; under setting [2], 2.4 ± 0.28.
For HRTRLQDLRVLVSNASEDTRRLRL [SCARA5] the same measures were 3.29 ± 0.11 and 3.57 ± 0.15.
The like results for HSDHSSEMSLPEVQKDKYPEEFSL [SPATS1] were, in that order, 5.3 ± 0.29 and 5.26 ± 0.29.
The like results for HSLDLNISEKLTLLPTLYEIHSKT [RNF180] were, in that order, 2.34 ± 0.26 and 2.46 ± 0.42.
As for HSVFEFLAFKNDIQFWNSRQSLEG [CLPTM1], the protein stability index is, setting by setting: under setting [1], 2.03 ± 0.17; under setting [2], 2.13 ± 0.28.
The like results for HVQNQVDEVIDVMQENITKVIERG [VAMP4] were, in that order, 3.95 ± 0.2 and 4.13 ± 0.52.
Regarding IAILLYKSKPDRKRAESDSRKSSI [PTPRD], the protein stability index under setting [1] is 1.75 ± 0.23 and the protein stability index under setting [2] came to 1.92 ± 0.44.
Regarding IAMAVYTYLRLIVDHHGTAQLQAL [INTS3], the protein stability index is, setting by setting: under setting [1], 3.35 ± 0.51; under setting [2], 3.17 ± 0.14.
The like results for ICQGDGSSCTHVTGNYRKGNAHLG [ADAMTSL2] were, in that order, 3.74 ± 0.33 and 3.92 ± 0.26.
The like results for IDAIYSVIDDAKQYVYIAVMDYLP [PLD5] were, in that order, 3.55 ± 0.11 and 3.73 ± 0.42.
As for IDKEIELHRILHHKHVVQFYHYFE [PLK2], the protein stability index runs as follows: under setting [1], 2.12 ± 0.29; under setting [2], 2.18 ± 0.38.
For IDKGDESWVTDMCKVGASSDPCGQ [PNLIPRP1] the same measures were 4.52 ± 0.48 and 4.66 ± 0.36.
The like results for IDRMFPEMSIHLSRPNGTSAMLLV [MED27] were, in that order, 2.65 ± 0.71 and 2.75 ± 0.52.
The like results for IDSHLLLSVLPQLEFKLKSNDNEE [PDS5B] were, in that order, 3.32 ± 0.27 and 3.09 ± 0.096.
IDYGANVNQPNNNGFTPLHFAAAS [ANKRD44]: the protein stability index by setting is: under setting [1], 3.1 ± 0.19; under setting [2], 3 ± 0.26.
For IELQAQHSMRNSLESTLAETEARY [KRT36] the same measures were 4.38 ± 0.15 and 4.23 ± 0.23.
The like results for IESAHRSRIKVLETSYQQREERLR [FBF1] were, in that order, 3.85 ± 0.15 and 3.82 ± 0.33.
For IEVNGENVEDASHEEVVEKVKKSG [PDZK1] the same measures were 5.63 ± 0.16 and 5.34 ± 0.38.
IFQEKHVNLLHIESRKSKRRNSEF [TPH1]: the protein stability index by setting is: under setting [1], 3.06 ± 0.25; under setting [2], 3.27 ± 0.28.
For IFQMVIICLMCVHSLERAGSKQYS [SMG5] the same measures were 3.21 ± 0.28 and 3.27 ± 0.48.
For the sequence IGKLLYLEDFFVMSDYRGFGIGSE [SAT1], the protein stability index is, setting by setting: under setting [1], 2.85 ± 0.33; under setting [2], 2.9 ± 0.81.
For IHSREKRGDSVKVENPSTASHSLS [ZNF649] the same measures were 4.97 ± 0.26 and 5.22 ± 0.15.
The like results for IHTGIKPHQCSECGRAFSRKSLLV [ZNF649] were, in that order, 2.56 ± 0.37 and 2.18 ± 0.4.
For IIEVLSNALSKSSAPPITPECRQV [CHGB] the same measures were 2.29 ± 0.54 and 2.32 ± 0.22.
With IKAWMDRYEEANNNQYSEGVQREA [KMT2E], the protein stability index reads like this: under setting [1], 3.77 ± 0.14; under setting [2], 4.05 ± 0.28.
